# From patent US20250042956A1 (University of California, published 2025)
# T1: AT3G10480.3 NAC050 (Arabidopsis thaliana, UniProt Q9SQX9 1-447, limits assumed)
# T1 construct: Endogenous protein found by mass spectrometry
# T1 sequence (looked up): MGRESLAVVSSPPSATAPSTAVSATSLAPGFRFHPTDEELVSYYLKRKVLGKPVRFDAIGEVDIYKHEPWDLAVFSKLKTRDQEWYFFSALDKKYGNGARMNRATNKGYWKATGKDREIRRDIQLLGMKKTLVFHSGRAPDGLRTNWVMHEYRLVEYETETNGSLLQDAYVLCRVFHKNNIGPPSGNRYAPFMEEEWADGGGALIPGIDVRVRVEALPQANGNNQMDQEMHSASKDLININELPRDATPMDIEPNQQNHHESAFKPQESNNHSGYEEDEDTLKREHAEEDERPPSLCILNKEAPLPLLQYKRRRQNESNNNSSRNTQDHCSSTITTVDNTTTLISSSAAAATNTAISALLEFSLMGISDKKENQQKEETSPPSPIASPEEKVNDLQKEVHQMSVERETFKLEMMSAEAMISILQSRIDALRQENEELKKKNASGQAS
# T2: AT3G49850.1 TRB3 (Arabidopsis thaliana, UniProt Q9M2X3 1-295)
# T2 construct: Endogenous protein found by mass spectrometry
# T2 sequence: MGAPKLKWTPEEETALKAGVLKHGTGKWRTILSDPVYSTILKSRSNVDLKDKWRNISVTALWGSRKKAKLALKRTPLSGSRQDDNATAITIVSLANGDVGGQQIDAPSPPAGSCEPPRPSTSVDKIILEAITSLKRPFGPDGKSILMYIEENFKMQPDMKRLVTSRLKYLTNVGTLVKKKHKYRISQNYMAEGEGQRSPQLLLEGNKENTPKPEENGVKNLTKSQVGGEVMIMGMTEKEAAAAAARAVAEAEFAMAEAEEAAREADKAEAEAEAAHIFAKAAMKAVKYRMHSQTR
# T3: AT5G67580.1 TRB2 (Arabidopsis thaliana, UniProt Q9FJW5 1-299)
# T3 construct: Endogenous protein found by mass spectrometry
# T3 sequence: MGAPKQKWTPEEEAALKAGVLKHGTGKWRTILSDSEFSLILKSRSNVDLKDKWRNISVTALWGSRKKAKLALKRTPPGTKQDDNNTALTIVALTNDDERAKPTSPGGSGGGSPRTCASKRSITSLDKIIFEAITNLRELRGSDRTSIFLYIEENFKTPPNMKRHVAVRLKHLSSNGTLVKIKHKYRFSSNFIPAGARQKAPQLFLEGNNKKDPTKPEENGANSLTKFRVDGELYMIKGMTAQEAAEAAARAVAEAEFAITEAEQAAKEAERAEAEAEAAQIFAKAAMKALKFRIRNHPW
# T4: AT1G49950.3 TRB1 (Arabidopsis thaliana, UniProt Q8VWK4 1-300, limits assumed)
# T4 construct: Endogenous protein found by mass spectrometry
# T4 sequence: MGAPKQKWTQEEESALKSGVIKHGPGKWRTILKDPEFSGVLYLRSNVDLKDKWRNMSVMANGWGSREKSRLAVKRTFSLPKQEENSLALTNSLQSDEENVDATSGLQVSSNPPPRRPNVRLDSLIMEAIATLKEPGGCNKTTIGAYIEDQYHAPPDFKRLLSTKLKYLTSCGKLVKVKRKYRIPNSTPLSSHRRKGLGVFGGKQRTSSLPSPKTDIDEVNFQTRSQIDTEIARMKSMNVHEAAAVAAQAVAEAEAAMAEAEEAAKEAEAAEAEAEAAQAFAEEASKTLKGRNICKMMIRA
# T5: AT2G17540.2 TRBIP2 (Arabidopsis thaliana)
# T5 construct: Endogenous protein found by mass spectrometry
# T5 chain: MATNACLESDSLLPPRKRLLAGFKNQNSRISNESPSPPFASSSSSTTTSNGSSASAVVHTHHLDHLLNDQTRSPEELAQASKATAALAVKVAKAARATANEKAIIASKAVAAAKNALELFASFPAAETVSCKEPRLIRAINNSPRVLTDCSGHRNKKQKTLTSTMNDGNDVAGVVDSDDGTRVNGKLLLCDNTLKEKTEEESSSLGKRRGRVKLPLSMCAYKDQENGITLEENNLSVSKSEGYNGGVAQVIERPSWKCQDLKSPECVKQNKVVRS
# T6: PIAL2-Myc (Arabidopsis thaliana, UniProt F4JYG0 1-760)
# T6 construct: not shown: C-terminal 9XMYC tag and BLRP (pEG302 vector)
# T6 sequence: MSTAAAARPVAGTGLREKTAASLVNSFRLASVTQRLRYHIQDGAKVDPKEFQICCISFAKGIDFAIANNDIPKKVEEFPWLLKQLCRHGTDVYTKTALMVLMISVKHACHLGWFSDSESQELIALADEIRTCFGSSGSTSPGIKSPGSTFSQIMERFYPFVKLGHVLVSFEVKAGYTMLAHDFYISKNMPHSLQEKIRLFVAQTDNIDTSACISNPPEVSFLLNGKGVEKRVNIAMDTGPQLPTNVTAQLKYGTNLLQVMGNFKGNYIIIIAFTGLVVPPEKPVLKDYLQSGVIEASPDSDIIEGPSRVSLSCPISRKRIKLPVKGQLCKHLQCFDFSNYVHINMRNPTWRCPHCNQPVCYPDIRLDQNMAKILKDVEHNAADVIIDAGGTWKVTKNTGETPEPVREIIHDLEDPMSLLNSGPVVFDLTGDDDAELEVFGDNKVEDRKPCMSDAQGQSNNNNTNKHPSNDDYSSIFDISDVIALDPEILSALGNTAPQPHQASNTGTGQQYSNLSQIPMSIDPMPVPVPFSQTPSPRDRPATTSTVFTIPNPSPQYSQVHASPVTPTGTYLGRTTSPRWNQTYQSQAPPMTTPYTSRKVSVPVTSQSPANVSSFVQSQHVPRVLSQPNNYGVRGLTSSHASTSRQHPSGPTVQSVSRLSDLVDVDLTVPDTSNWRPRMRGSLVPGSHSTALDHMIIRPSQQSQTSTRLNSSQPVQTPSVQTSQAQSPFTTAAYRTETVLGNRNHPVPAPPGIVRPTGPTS
# Legend:
# AT3G10480.3 NAC050 [1] = target: T1, AT3G10480.3 NAC050; experiment: IP-MS rep 1
# How it was run: (§1)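 Ten grams of unopened floral buds from Col-0 wild type and FLAG-tagged transgenic Arabidopsis lines were ground in liquid nitrogen, homogenised in 25 mL IP buffer and filtered through Miracloth. Lysates were incubated with 250 μL anti-FLAG M2 magnetic beads at 4° C for 2 hours, washed and eluted with TBS containing 250 μg/mL 3×FLAG peptides. Eluted proteins were precipitated with trichloroacetic acid and analysed by mass spectrometry to give peptide counts for co-purified proteins.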
# AT5G08450.1 HDC1 [2] = target: T7, AT5G08450.1 HDC1 (Arabidopsis thaliana); experiment: IP-MS rep 1
# T7 construct: Endogenous protein found by mass spectrometry
# How it was run: as §1
# AT3G49850.1 TRB3 [3] = target: T2, AT3G49850.1 TRB3; experiment: IP-MS rep 1
# How it was run: as §1
# AT5G67580.1 TRB2 [4] = target: T3, AT5G67580.1 TRB2; experiment: IP-MS rep 1
# How it was run: as §1
# AT1G49950.3 TRB1 [5] = target: T4, AT1G49950.3 TRB1; experiment: IP-MS rep 1
# How it was run: as §1
# AT2G17540.2 TRBIP2 [6] = target: T5, AT2G17540.2 TRBIP2; experiment: IP-MS rep 1
# How it was run: as §1
# AT3G10480.3 NAC050 [7] = target: T1, AT3G10480.3 NAC050; experiment: IP-MS rep 2
# How it was run: as §1
# AT5G08450.1 HDC1 [8] = target: T7, AT5G08450.1 HDC1; experiment: IP-MS rep 2
# How it was run: as §1
# AT3G49850.1 TRB3 [9] = target: T2, AT3G49850.1 TRB3; experiment: IP-MS rep 2
# How it was run: as §1
# AT5G67580.1 TRB2 [10] = target: T3, AT5G67580.1 TRB2; experiment: IP-MS rep 2
# How it was run: as §1
# AT1G49950.3 TRB1 [11] = target: T4, AT1G49950.3 TRB1; experiment: IP-MS rep 2
# How it was run: as §1
# AT2G17540.2 TRBIP2 [12] = target: T5, AT2G17540.2 TRBIP2; experiment: IP-MS rep 2
# How it was run: as §1
# PIAL2-Myc = target: T6, PIAL2-Myc; experiment: co-IP, anti-FLAG, crossed lines
# Protocol: The Co-IP assays in this study were performed by following previous protocol (see e.g., Wang, Science, 2016) with some modifications. 2 grams of 2-week-old seedling tissue were collected from Arabidopsis transgenic lines: JMJ14-FLAG×TRB1-Myc and TRB1-Myc; MORC6-FLAG×PIAL2-Myc and PIAL2-Myc. The samples were ground into fine powder with liquid nitrogen, resuspended with 10 mL IP buffer, and incubate 20 minutes at 4° C. The lysate was centrifuged and filtered through Miracloth for two times, and the supernatant was incubated with 30 μL anti-FLAG M2 Affinity Gel (Millipore) for 2 hours at 4° C. The anti-FLAG beads were washed with IP buffer for a total of 5 times, and the protein was eluted with 40 μL elution buffer (IP buffer containing 100 μg/mL 3×FLAG peptide as final concentration). The supernatant was mixed with 5×SDS loading buffer and subject to Western blot.
IP-MS count (AT3G10480.3 NAC050 [1]),IP-MS count (AT5G08450.1 HDC1 [2]),IP-MS count (AT3G49850.1 TRB3 [3]),IP-MS count (AT5G67580.1 TRB2 [4]),IP-MS count (AT1G49950.3 TRB1 [5]),IP-MS count (AT2G17540.2 TRBIP2 [6]),IP-MS count (AT3G10480.3 NAC050 [7]),IP-MS count (AT5G08450.1 HDC1 [8]),IP-MS count (AT3G49850.1 TRB3 [9]),IP-MS count (AT5G67580.1 TRB2 [10]),IP-MS count (AT1G49950.3 TRB1 [11]),IP-MS count (AT2G17540.2 TRBIP2 [12]),binding result (PIAL2-Myc),Binder
2,8,31,66,39,0,0,2,19,36,15,0,–,"TRBIP1 (bait of the TRBIP1 IP-MS) (other, not shown: small tags and cut ends, tag and its position not described; also called TRBIP1-1; TRBIP1-2) METNPCDMNQLDSDSHLPPRKRLLAGFKKFNSNGINGSSPSDFASSSSTSNSNGSSSASTNVQTHLGNLLSSPFNNDQSPEELVEATRSAAALAVKAAKAARAIANEKALISAKAIAAAKRALELVDSFPKEAMADCKERSPRKNKQKKHVPVELLYSKGQLRDEEDDLARRLHRAIDNTSYPRVLRTSEENGQRYKKQKKNKSVVEGGSSSIIVTGSMKDIAGVVDSDSSYEGLEIARSNRDEADSMLMMEKSGEESNSLVKRRGRVKLKKLPLSICNSRNQENGTSSASPLPVAQPQEDGGAITVIAGSSSWKCQDIKAPECVKQNKAVRS"
–,–,–,–,–,–,–,–,–,–,–,–,binds,"MORC6-FLAG (other, Arabidopsis thaliana, UniProt Q56Y74 1-663, looked up, not shown: FLAG tag (3xFLAG-BLRP vector described)) MSHDRSVNVSHDAVIAKPERGTMLQSFSPRSHGSKGYSLPQDSEENRGSVGQSAGQSSTSVVDQVRSPADDAGVTSSSTICPAPVCRQFWKAGSYNDELSSKSQQPNGKNYLHVHPMFLHSNATSHKWAFGAVAELLDNAVDEIQNGATFVIVDKTTNPRDGATALLIQDDGGGMDPQAMRHCMGFGFSDKKSDSAIGRYGNGFKTSTMRLGADVIVFSRHSKNQTLTQSIGLLSYTYLTRTGHDRIVVPILDYEFNASAGEFKTLQDREHFISSLSILLEWSPFSTEAELLQQFDDVGPHGTKVIIYNMWLNSDAKLELDFDSVAEDILIEGSIKKTGSKIVNDHIASRFSYSLRVYLSILYLRIPETFKIILRGKVVEHHNVADDLMHPQYILYKPQAAGSEEALVVTTIGFLKEAPKVNLHGFCVYHKNRLIMPFWQVINYSSSRGRGVVGVLEANFVEPTHNKQDFEKTVLLQKLENRLKEMTVEYWSCHCVLIGYQVNKKPRLQIPQKVQPAGRQALSPPPGFQAVFPQGNTTSLPRVSTQPVLLEKRKEHPDSVASAALKRKVGNDDFTVPGHIRVEQFIHGSASQSQDIETVKLMEENKKLRAKCLDRKVRSQNLEVKAMNLRSELENYKSEYERLMVELQALDLVKDEHRRNVNT"
